assay: yeast display, Sf9 membrane polyspecificity reagent, FACS + sequencing; frameworks hold sequencing errors
Summary of the method: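 Galactose-induced (36–48 hours) yeast carrying a synthetic nanobody display library were exposed to 10% biotinylated, detergent-solubilized Sf9 membrane reagent at 4 °C for 1 hour. FACS followed streptavidin microbead enrichment, using low and high (top ~1%) gates for expression (anti-HA) and reagent binding (streptavidin). Colony PCR, MiSeq 2 × 250 sequencing and CDR-length filtering followed. Labels for polyreactivity reflect the gate of origin.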

Row | Sequence | polyreactivity (PSR sort gate)
1 | QVQLVESGRGLVQAGGSLRLSCAASGVTFNVYAMGWYREAPGKVRELVAAISYNGGRTYYADSVKGRFTISRDNAKNTVYLQINSLKPEDTAVFYCAALYYFTPSDGRRYDYWGQCTQVTVSS | high polyreactivity
2 | QVQLVESGGGLVQAGGSLRLSCAASGSIFWTIAMGWYRQSPGKERELVASIHSSDASTDYADSVKGRFTISRDNAKNTVYLKMNSLKPEDTAVYYCNAAGAYPYYSEDYYWGQGTQVTVSS | low polyreactivity
3 | QVQLVESGGGLVQAGGSLRLSCAASGITFSLYAMGWYRQAPGKERELVAAITRSGGSTYYADSVKGRFTISRDNAKNTVYLQMNSLKPEDTAVYYCAAKRPGVRRYYYWGQGTQVTVSS | high polyreactivity
4 | QVQLVESGGGLVQAGGSLRLSCAASGRTFTRYAMGWYRQAPGKERELVASISSRGTRTYYADSVKGRFTISRDNAKNTVYLQMNSLKPDDTAVYYCNVGFYPYYFLTYQGGDYWGQGTQVTVSS | high polyreactivity
5 | QVQLVESGGGLVQAGGSLRLSCAASGFTFWKYTMGWYRQAPGKERELVAAITNSGTSTYYADSVKGRFTISRDNAKNTVYLQMNSLKPEDTAVYYCARDNEPDYYSYPYDYWGQGTQVTVSS | low polyreactivity
6 | QVQLEESGGGLFQAGGSLRLSCAASGSTFADNAMGWYRQATGKEAEFVAGISTNGGSTYYADSVKGRFTISRDNAKNTVYLQMNSLKPEDTAVYYCNADSIDPFLYDYWGQGTQVTVSS | low polyreactivity
7 | QVQLVESGGGLVQAGGSLRLSCAASGSTFRRNAMGWYRQAPGKERELVAAISRRGGSTYYADSVKGRFTISRDNAKNTVYLQMNSLKPEDTAVYYCAADNTQVRPKYDYWGQGTQVTVSS | high polyreactivity
8 | QVQLVESGGGLVQAGGSLRLSCAASGRTFVRYAMGWYRQAPGKERELVAAISRTGGTTYYADSVKGRFTISRDNAKNTVYLQMNSLKPEDTAVYYCNADPFYKYGYWGQGTQVTVSS | high polyreactivity
9 | QVQLVESGGGLVQAGGSLRLSCAASGSIFYGNAMGWYRQAPGKERELVAAIDGTGASTYYADSVKGRFTISRDNAKNTVYLQMNSLKPEDTAVYYCNKALTSKDYPVRTVERDYWGQGTQVTVSS | low polyreactivity
10 | QVQLVESGGGLVQAGGSLRVSCASSGFTFVYYAMVWYRQAPGKERELVATISGNGGRTYYADSVKGRFTISRDNAKNTVYLLMHSLKPEDTAVYYSAALLYIRSVGDDYWGQGTKVTVSS | low polyreactivity
11 | QVQLVESGGGLFQTGGSLRLSRAASGRTFRYYVMGWYRQAPWKESELVAAISWSGGRTNYADSVKGRFTISRDNAKNTVYLQMNCLKPEDTSVYYCIAAGPALRRYDYWGQGTQVTVSS | high polyreactivity
12 | QVQLVESGGGLVQAGGSLRLSCAASGSIFHPYTMGWSRQAPGKERELVAAISWSGGRTYYADSVKGRFTISRDNAKNTVYLQMNSLKPEDTAVYYCAADVTLWYDSWGQGTQVTVSS | low polyreactivity
13 | QVQLVESGGGLVQAGGSLRLSCAASGIIFVYYAMGWYRQAPGKERELVAAISYSGGRTYYADSVKGRFTISRDNAKNTVYLQMNSLKPEDTAVYYCAAVDRRGYRYALDYWGQGTQVTVSS | high polyreactivity
14 | QVQLVESGGGLVQAGGSLRLSCAASGFIFVNYMGWYRQAPGKERELVAAISRGGSTNYADSVKGRFTISRDNAKNNVFLQMNSLKPEDTAVYYCAAETWYSGYTYDYWGQGTQVTVSS | low polyreactivity
15 | QVQLVESGGGLVQAGGSLRLSCASSGYILRSNAMVWYRQAPGKEREFVAAITYSGGTTYYADSVKGRFTISRDNAKNTVYLQMNSLKPEDTAVYYCNADYGYYKLDYWGQGTQVTVSS | low polyreactivity
16 | QVQLVESGGGLVQAGGSIRLSCAASVSIQTRNAMGWYRQAPGKERELVAAISRGGSTTYADSVKGRFTISRDNAKNTVYLQMNSLKPEDTAVYYCAASDYYVLSRRTRMDYWGQGTQVTVAS | high polyreactivity
17 | QVQLVESGAGLVQAGGSLRLSCAASGRTFYNNAMGWYRQAPGKERELVAAISQRTGRTYYADSVKGRFTISRDNAKNTVYLQMNSLKPEDTAVYYCAARTLSYEYNYWGQGTQVTVSS | high polyreactivity
18 | QVQLVESGGGLVQAGGSLRLSCAASGRIFYSNAMGWYRQAPGKEREFVAAISWSGGGTYYADSVKGRFTISRDNAKNTVYLQMNSLKPEETAVYYCAAVFGYSWAFEYDYWGQGTQVTVSS | low polyreactivity
19 | QVQLVESGGGKVQAGGSLRLSCAASGFIFRYYAMGWYRQAPGKERELGAAISKRGGSTYYADSVKGRFTISRDNAKNTVYLQMNSLKADDTAVYYCARGYPIDPSFDTYDYWGQGTQVTVSS | high polyreactivity
20 | QVQLVESGGGLVQAGGSLRLSCAASGRTFKWYAMGWYRQAPGKERELVAAITTGGNTYYADSVKGRFTISRDNAKNTVYLQMNSLTPEDTAVYYCARVPTQGYNPYEYWGQGTQVTVSS | low polyreactivity
21 | QVQLVESGGGLVQAGGRLRLSCAASGITFRYYAMGWYRQAPGKERELVAAITRSGTSTYYADSVKGRFTISRDNAKNTVYLQMNSLKPEDTAVYYCNAEYYHSSTGDDFDYWGQGTQVTVSS | low polyreactivity

Row | Sequence | polyreactivity (PSR sort gate)
22 | QVQLVESGGGLVQAGGSLLLSCAASGSIFSIYAMGWYRQAPGKERELVAAISSSGRTYYADSVKGRFTISRDNAKNTVYLQMNSLKPEDTAVYSCNRVREGKHYYYWGQGTQVTVSS | high polyreactivity
23 | QVQLVESGGGLVQAGGSLRLSCAASGFISDDYAMGWYRQAPGKERELVAAISDSGVDTYYADSVKGRFTISRDNAKNTVYLQMNSLKPEDTAVYYCNKRYVIRRRGYDYWGQGTQVTVSS | low polyreactivity
24 | QVQLVESGGGLVQAGGSLRLSCAASGFTFRYYAMGWYRQAPGKERELVASISWSSGSTHYADSVKGRFTISRDNAKNTVYLQMNSLKPEDTAVYYCNARHRTSSMHYWGQGTQVTVSS | high polyreactivity
25 | QVQLVESGGGLVQAGGSLRLSCAASGSTFGGKAMGWYRQAPGKDREMVAAITGSGGRTFYADSVKGRFTISRDNAKNTVYLQMNSLKQEDTAVYSCAAYSYIYSVNYWGQVTQVTVSS | low polyreactivity
26 | QVQLVESGGGLVQAGGSLRLSCAASGLTFQSNAMGWYRQAPGKEREFVAAITSGGNTYYADSVKGRFTISRDNAKNTVYLQMNSLKPEDTAVYYCNADYQDEEDDYWGQGTQVTVSS | low polyreactivity
27 | QVQLVESGGGLVQAGGSLRLSCAASGRTFRAYAMGWYRQAPGKERELVAAISSRGGSTYYADSVKGRFTISRDNAKNTVYLQMNSLKPEDTAVYYCNVDRYVRGLITFDYWGQGTQVTVSS | high polyreactivity
28 | QVQLVESGGGLVQAGGSLRLSCAASGSIFYLYAMGWYRQAPGKERELVAGIRYRGGSTYYADSVKGRFTISRDNAKNTVYLQMNSLKPEDTAVYYCAAEYGDGRYWSYDYWGQGTQVTVSS | high polyreactivity
29 | QVQLVESGGGLVQAGGSLRLSCAASGSTFISNAMGWYRQAPGKERELVASITWTDVSTYYADSVKGRFTISRDNAKNTVYLQMNSLKPEDTAVYYCAAVTGLSSNDGYDYWGQGTQVTVSS | low polyreactivity
30 | QVQLVESGGGIVQAGGSLRLSCAASGSTFRGYAMGWYRQAPGKETELVAAITSRGTRTYYADSVKGRFTISRDNSKNTVSLQMNSLKPEDTAVYYCNVVSDIRLYYRYAYDYWGQGTQVTVSS | high polyreactivity
31 | QVQLVESGGGLVQAGGSLRLSCAASGRIFGHYVMGWYRQAPGKERELVAGISSGGITYYADSVKGRFTISRDNAKNTVYLQMNSLKPEDTAVYYCAARVYYVRGSDTMDYWGQGTQVTVSS | low polyreactivity
32 | QVQLVDSGGGLVQAGGSLRLSCAASGYTILSYVMGWNRQAPGKERELVAAIRRSGGSTYYADSVKGRFTISRDNAKNTVYLQMNSLKPEDTAVYYCNAPHHRYDWGQGTQVTVSS | high polyreactivity
33 | QVQLVESGGGLVQAGGSLRLSCAASGSIFSRYTLGWYRQAPGKVRELVARINSSGTSTYYADSLKGRFTISRDKAKNTVYLQMNSLKPEDTAVYYCARTSRHVRYDYWGQGTQVTVSS | low polyreactivity
34 | QVQLVESGGGLVQAGGSLRLSCAASGRTIRWNAMGWYRQAPGKERELVAAITSRGGSTYYADSVKGRFTISRDNAKNTVYLQMISLKPEDTAVSYCAKQPKPPPVTGYDYSGQGTQVTVSS | high polyreactivity
35 | QVQLVESGGGLVQAGGSLRLSCAASGLIFYINAMGWYRQAPGKERELVAVISGGGSTNYADSVKGRFTISRDNAKNTVYLQMNSLKPEDTAVYYCNARRSHSYRHYDYWGQGTQVTVSS | low polyreactivity
36 | QVQLVESGGGLVQAGGSLRLSCAASGSTFNSYAMGWYRQAPWKERELVAAISSTGGNTYYADSVKGRFTISRDNAKNTVYLQMNSLKPEDTAVYYCNARRYGKVVRSRYNYWGQGTQVTVSS | high polyreactivity
37 | QVQLLETGGGLVQAGVSLRLSSAASGRTFWTNGMGWYRQAPGKERELVASISTSGGRTYYADSVKGRFTISRDNSKNTVYLQMNSLKPEDTAVYYCAARALSHGARYDYWGQGTQVNVSS | high polyreactivity
38 | QVQLVESGGGLVQARGSLRLSCAASGRIFWSNAMGWYRQAPGKERELVAAISYSGDSTYYADSVKGRFTISRDNAKNTVYIQMKSLKPEDTAVYYCTAVGHRSYRYDYWGQGTQVTVSS | high polyreactivity
39 | QVQLVESGGGLVQAGGSLRLSCAASGRIVSLNAMGWNRQAPGKERELVAGIRKRGRSTYYADSVKGRFTISRDNAKNTVYLQMNSLKPEDTAVYYCAAQPALTYRFYYWGQGTQVTVSS | high polyreactivity
40 | QVQLVESGGGLVQAGGSLRLSCAASGRTFYIYVMGWYRQAPGKERELVAGITWRGGITYYADSVKGRFTISRDNAKNNVYLQMNSLKPEDTAVYYCAVDDLGSEYDYWGQGTQVTVSS | low polyreactivity
41 | QVQLVESGGGLVQAGGSLRLSCAASGSIFGYYAMGWYTLAPGKERELVASISFSGGSTYYADSVKGRFTISRDNAKNTVYLQMNSLKPEDTAVYYCAKRPRFVYWKHGYWGQGTQVTVSS | high polyreactivity
